Assay: soluble on expression in E. coli; label from the status in PepcDB or PDB records

Sequence	soluble on expression in E. coli
MGPNHPCGYLPGRDARFTYVSPAYPLSPQSYRGLLEEGFRRSGNWVYRPCCIGCSACLPVRLPVHDFRLTRSHRRVIKRNADIDIRVSVARFDERQFQLYVRYLAARHPLEHHHHHH	not soluble
MSPEYAMEGIFSVKSDVFSFGVLVLEIVSGKRNRGFHNSGQDNNLLGYTWENWKEGKGLEIVDSIIVDSSSSMSLFQPHEVLRCIQIGLLCVQERAEDRPKMSSVIVPFCTR	not soluble
MLDSKLKAPVFTVRTQGREYGEFVLEPLERGFGVTLGNPLRRILLSSIPGTAVTSVYIEDVLHEFSTIPGVKEDVVEIILNLKELVVRFLNPSLQTVTLLLKAEGPKEVKARDFLPVADVEIMNPDLHIATLEEGGRLNMEVRVDPGVGYVPAEKHGIKDRINAIPVDAVFSPVRRVAFQVEDTRLGQRTDLDKLTLRIWTDGSVTPLEALNQAVEILREHLTYFSNPQAAAVAAPEEAKEPEAPPEQEEELDLPLEELGLSTRVLHSLKEEGIESVRALLALNLKDLKNIPGIGERSLEEIKEALEKKGFTLKE	soluble
KDWEKVVYGFATLYICSFVLDQVVNSARQSVQFFIISNKYEEIGRHINEYPHRGVTIINATGFYTGREVKMMFVLAKKRESTIIFRLIKDIDPNAFVSQSAVIGVYGEGFDHIKVK	not soluble
MQKALETKRLTLSYGETIIIDELNLEIPKGEITIFIGSNGCGKSTLLRSLARLLKPTTGDILLDNQAIQSMQTKQIARQMAILPQGPQAPEGLTVLQLVKQGRYPYQTWLKQWSEKDEEMVQNALAATGMTEFAERDVHALSGGQRQRAWIAMTLAQDTDIILLDEPTTYLDMTHQIEVLDLLFELNETEQRTIVMVLHDLNLACRYADNIVAIQDKQIYAQGKPEEVVDEKLVRDVFRMECQISTDPLFGTPLCIPHGKGRRVRKEVAHAMR	not soluble
MGSDKIHHHHHHMIDAFVRIGPLMDPASYPQWAQQLIEDCRESKRRVVEHEFYARLRDGQLKQSTIRQYLIGGWPVVEQFSLYMAHNLTKTRYGRHQGEDMARRWLMRNIRVELNHADYWVNWCQAHGVHLHELQAQEVPPELNGLNDWCWRVCATENLAISMAATNYAIEGATGEWSAVVCSTDTYAQGFPEEGRKRAMKWLKMHAQYDDAHPWEALEIICTLAGENPTLGLRTELRRAICKSYDCMFLFLERCMQLEGRQQGRMRPALAAG	not soluble
MVTMALDSVTIEVIRNSAIYISEEMGVVLRDTAFSPNIKDRLDHSCAVLAPDGSLVAQAEHIPVHLGSMSVGVVNLVKYIEDLGMDLGVGDVVVTNDPYISGTHLNDLMAIKPVYAGDFHIAYVANKAHHVDVGGLVPGSIGGGAKELREEGIVIEPVKVVEAGSVRWDIVRMLEANVRTPRYFRGDLMAQIASLNVGEARLRELAGRYGGSALVEAWESILGYTERYTREKIGEVAALASGVYRARDYMETSKGELLEIVATLTIDKGRLTVDYTGTSKQVDEPINAVYGVTVAATLFALKSTLDPEMPMNQGFFRIVEIKAPEGTLVNPLKPAPVGGGNVETSQRIADVVFRALAEALPERVPAASCGTMSNVMVGGRGWAFYETNACGSGARPCCDGVDGVHTNMTNTLNTPIEVIEREYPILFNAYELRPDSGGPGMYRGGLGVVRAFTALEDNVTITIFAERGLTRPWGLSGGRPGRSFEAVITRAAGEVERLMSKHTAKLNRGDTIAIYTPGGGGYGDPCKRDRSLIERDLREGRITMESAVKDYCYDS	not soluble
MGSDKIHHHHHHMRWGGASPIEATVRDLSLSRIYMRVTGDSLSTNAQDCPSSEILRIAVVSSPRSGNSWIRSTLAGALSMQEIAIHNYLDAPAVLPQRCFLQIHWYREPNFQAWLRENQFRVLTVARHPLDVLVSALHYIRYEPGTSRWLEGNVKLPGELANASPSSPEFLEYALGMGAEDLLSITYQWWNDPEVLRLRYEDAVANPEVVLGNQIAALGGSAQDVVPWLARLSIDKMRATPNRHGWQGSPGLWRRLIVPQDAIRIYRRHRRIFDTLGYTIRPYFLTRASAYRNWMERL	not soluble
MSLNQKDPVTDDITGGWYEQDIRQLAARGIMQGEGNGKYFPERLVTRAEFATLITRALQLPSGNAKFTDLEQVHPSLRDGINRAASAGIIRGRGDNTFDPNTTITREEAVIMIDRSLKHAGIFAKQVELPFVDQNLIYAKQEVQRVYGFGIVKGNEFNQFVPKGPSQRAHAAAFINRMLSVIEAEGHHHHHH	soluble
TSPTTTSTGTGTGSSTDQAISPLVEGENAPEVTTAKLGFIALTDAAPLIIAKEKGFYAKYGMPDVEVLKQASWGTTRDNLVLGSASGGIDGAHILTPMPYLITMGTVTDGKPTPMYILARLNVNGQGIQLGNNYKDLKVGTDAAPLKEAFAKVTDPKVAMTFPGGTHDMWIRYWLAAGGMEPGKDFSTIVVPPAQMVANVKVNAMESFCVGEPWPLQTVNQGVGYQALTTGQLWKDHPEKAFGMRADWVDQNPKAAKALLMAVMEAQQWCDQAENKEEMCQILSKREWFKVPFEDIIDRSKGIYNFGNGQETFEDQEIMQKYWVDNASYPYKSHDQWFLTENIRWGYLPASTDTKAIVDKVNREDLWREAAQALEVPADQIPSSPSRGIETFFDGITFDPENPQAYLDSLKIKSIKA	soluble
MSLTSTIIDVRAKLYTWKGDVQKIHENFCTNAADLVNQDNISNDRWATYKFLSWLVVEVETSDGHIGIGNAALSPKPCKSVVDNYLKPAIIGESIWDYEHIWQKMYRQTLAWGRKGIGMTAISAVDIAIWDALGKTVKQPVFKLLGGKTKSKLPCYASKLYSQPLDSLAKEAKDYLDQGFKAMKLRLGWGPNDGAEGMRKNIELIRTVRSVVGEDVDLMADVYMGWTFEYAKRMMRLIDNENLRWLEEPVIADDIDGYADLKASCQTPISGGEHEYTLFGFRQLLEKKAVDVVQFDTNRVGGITQAHKICALAEAFQIPVIPHAGQVHNFHISMSSINAPIVEYFPFWPVEIGNELFWYIFDGEPQAKDGYIELDDTKPGLGIELSEKYLKDFVIEVEGHHHHHH	soluble
MSDSFGVYVHVPFCSSRCGYCDFNTYTPGELGGTASPESYLDALEKELELAAASGTTRPATTVFIGGGTPSMLGASGLTRVLSAVRNTIGIAPGAEVTTESNPETTSPEFFSELLDAGYNRISLGMQSASSSVLRVLERKHTPGRAFDAALEAMNAGFLHVNLDMIYGTPTETDDDVRLTLERALDTGVDHISAYSLIVEDGTAMARKVHKGQLPPPNEDVYADRYGLIDTALRAQGFDWYEVSNWAKPGGECQHNLGYWLDGDWWGAGPGAHSHIASRRFFNVKHPSTYAQHLADGQLPIKEEELLDSTERHEESVMLGLRLRQGLELSRFTEAERAVIEKYVGLKLLHIYDGRVASTLQGRLLIDGIIADILVAYLEHHHHHH	not soluble
GQVQLVESGPGLVAPSQSLSITCTVSGISLSRYNVHWVRQSPGKGLEWLGMIWGGGSIEYNPALKSRLSISKDNSKSQIFLKMNSLQTDDSAMYYCVSYGYGGDRFSYWGQGTLVTVS	soluble
MGSDKIHHHHHHMREDFLSREEVDALLRGVSSGSTTSEQSTANPGFRPYNLATQERIVRGRMPTLEIINERFARLLRLGLFNFMRRSANVTAGPVRVMKFSEFVRNLAAPSNLNLVHIKPLRGTSLFVFDPTLVFLVVDNLFGGDGRFLPKTEGRDFTQTEQRIIQRLLNLVFDSYGKSWHPVYPIEFEYLRAETNTQFANVATPNEVVVATTFEVNFGSVVGEMHICMPYSILEPIRDLLSSTLQGEALEVDKRWVGRLSKQVQSAEVTLLANLTHAQVRLDQILNMKVGDVIPLDIPEFVTASVDGVPVMECKYGISNGRYALRMEKMLASGNSNE	not soluble
MPDEIYLFTPKGKIFALPKNSTALDFAYAVHTDIGNHAVTSRVDKQLMPLRTKLSSGQTVEIITARSALPKPQWLEHHHHHH	not soluble
MGSDKIHHHHHHMSLEATDSKAMVLLMGVRRCGKSSICKVVFHNMQPLDTLYLESTSNPSLEHFSTLIDLAVMELPGQLNYFEPSYDSERLFKSVGALVYVIDSQDEYINAITNLAMIIEYAYKVNPSINIEVLIHKVDGLSEDFKVDAQRDIMQRTGEELLELGLDGVQVSFYLTSIFDHSIYEAFSRIVQKLIPELSFLENMLDNLIQHSKIEKAFLFDVNSKIYVSTDSNPVDIQMYEVCSEFIDVTIDLFDLYKAPVLRNSQKSSDKDNVINPRNELQNVSQLANGVIIYLRQMIRGLALVAIIRPNGTDMESCLTVADYNIDIFKKGLEDIWANARASQAKNSIEDDV	not soluble
SPGFSVGVIGDMFLLPNLNLRLLPTLHFGDKQFVFSDGEKPVASFSVRSNYLEFPLLLKYGSRRLNNMRPYLIGGPYWTMELGRKKGLEIYTKANDYGVQIGLGCDFYLPFFKLCPELRFSFGFPDVITHERPDLLDDYKLIYTQSISRARTRMIMLTFNFE	not soluble
MSTPTAADRAKALERKNEGNVFVKEKHFLKAIEKYTEAIDLDSTQSIYFSNRAFAHFKVDNFQSALNDCDEAIKLDPKNIKAYHRRALSCMALLEFKKARKDLNVLLKAKPNDPAATKALLTCDRFIREERFRKAIGGAENEAKISLCQTLNLSSFDANADLANYEGPKLEFEQLYDDKNAFKGAKIKNMSQEFISKMVNDLFLKGKYLPKKYVAAIISHADTLFRQEPSMVELENNSTPDVKISVCGDTHGQFYDVLNLFRKFGKVGPKHTYLFNGDFVDRGSWSCEVALLFYCLKILHPNNFFLNRGNHESDNMNKIYGFEDECKYKYSQRIFNMFAQSFESLPLATLINNDYLVMHGGLPSDPSATLSDFKNIDRFAQPPRDGAFMELLWADPQEANGMGPSQRGLGHAFGPDITDRFLRNNKLRKIFRSHELRMGGVQFEQKGKLMTVFSAPNYCDSQGNLGGVIHVVPGHGILQAGRNDDQNLIIETFEAVEHPDIKPMAYSNGGFGL	soluble
MIISPLFLKDKSNSEDDASWVSRMMPVDPERGFPLNSHRSWHGGIHIPHTDSGGTPEKIRAIADGTVHSLRQPVGDKKGIPPYNYNGATDCGYVLLKHETEIGSGENAKVVYFSLYMHLASIDAAVKTGEKIYRKDPIGTVGQVDGGNAVHFQIFCDDTNLTKLVGRTTPELDLTKNGRTDAVYGDMYFYLPTGTKFYSHAPANNATTTTEAETYTSTEPLFVSMSFDKGKCTMLTRKKGVFSIGKYSEVGEKLENTDGADYEYNVYAQAKKLYPQSQSAGYELLRFGRVINTDYETLVPADAPLWRTISYPGGKGVVNLALPAVKKFSDGDFPHWTGWQLIDDDTDENSQCNSEQVLCRIGDDMQGLICHLPLEWDASTLEKRLSWLKTTVINESLANQKASHQVDDTGNNASGYAFDNINPDMSVLNAQSTPSFEQAAKDTAMAEADWNALIEHAKALCFDVSGLPVGRVWHFNPISFIAHFRKCGWLDPEKIKSILTSALNKKRNVRKITLIEKASDSNYTFLNLAMRKYNILTPNRQSHFLGQGAVESDSLTAMQEVSQEQVIVNGKQTGGGIVIKSTLNESELGHWYGSEPSELDIYYSGNKYNKNGGLIAGSYSWSNGNCGDVDAQKFRGRGFKMLTGRDKYADYWVYRGWLLKSSFDAYWWDDVKYKSKNLKAMKKRPAIIDDPHKITASPYNCIDSGSFFITCFRRSTVKEIDKDQAESADDSVVTKVTQAINGGDIGLSQRKVMTNNAKGKLNDKY	not soluble
MAGGARDDLAEKMAGEVALSDDPGATLRKWRTDFDVAQTELADELDVSPSVVSDYESGRRDNPGIGVVRRLVVALLDIDENRGGDHIRQHARVLSAGFDSDVVHDLREYSANVGVERVYDAIDAEELFRGSQDTVAGHTVINSIAAITRLSSDEFYQLYGQSTNRALVFTNVTRGESPLVALRVVSPTPNAVILHGLEDEAVWEHAQDLARIDDFSLAITDIELEDLLGGLRELP	not soluble

— the DeepSol protein solubility set
